Results taken from the DeepSol protein solubility set.

assay: soluble on expression in E. coli; label from the status in PepcDB or PDB records

Soluble on expression in E. coli, not soluble:
MGSDKIHHHHHHLIIDANIYWLPNEIFVSEEMTNHFLRVVPREYGVYAYQREKNKNEREFVIEKPEGSENLNYFQGDYDLSVQLENMDQAGVDTGVMKLPGCQEWLDLDLCIQFNNQMAETVKKSKGRFRALAVVPPSGDADTLRELKRCIKELHMNGLQLSAHYGNKYLDDPMFRPLLKCASDLNIPVYVHHTPVPVEYNSLADYNNLRRSYGRCEDQTIAVTREIFSGMFKELPNLKMIHSMLGGGYFAYKNMFFPNDSGHGRFDANTSDVARSLKDNIYFEMSHAQPWGKAELKCAVEVLGADHIIYGSSYPVKKDWLIGGPQYVGDLPISQDEKDMLLFKNAERIYGIK
MGSDKIHHHHHHLIKNILIMAANGQISRLIENQILNDDQFANVHLTLFLRHQSRLAQLAKNPRVTLIEGSLDRLDDVKKAMVDQDLVFIGVVDHSKGSQQTQNVIAGMKAGHVQRVIYTNVLGIYDEVPGTFGKWNKATIGNGLPSALKSDQLLEQSGLDYTTLRLPWLNDRDVKYQLTHKDETYVGVSGSRKSVADVVLKIIADPDYLKNDSVGIADPDTAGSDRLVY
MGSDKIHHHHHHLLYRTIMVGENLESMQCEKYFESLFDVDFDYLVGLGKEMPTILFIDASKYSKDVLNDWIFAFTNIILINNNPIRAFIIRGYSEELQEFKGYYRVVSSYKSPRQIVQEIISNVNDHLDKMIGNSSRVIQMKKMLVLSMFYDGSIMILGETGSGKNLLAEVIAKLSPRGSRPFYSINCAAIPENLLESEIFGYKKGAFTGATSEKVGLIEQANNGTLFLDEIGDMPLNLQAKILAITENREFFKIGATRPIKVDVRFITATNRYDDSAMRNDLRYRLSAVKIDLPPLRERKSDISLIFDEILEKKGYLVKFENIPQDLKERFLSYSYPGNVRELINMIEEYLAVNDVVQASVNSSMSKYVKVLAEEAIVARMVNGTSYKDFLQEVYKSVSQELLLQRSEVLKNDINEIAREFGLTTRRIRDLLAELNSSAKALTPNDDDE
MGSDKIHHHHHHLNNCGMVAWIMTLYTPEKPRGFDLIVIGNDVTFQSGSFGTAEDDLFAAASTYSREHKLPRVNVSVNSGARIGLSTKISKLVKLQLENEDKPEQGFEYIYIDGEHKAQIEGEVVYEELGNGRLKILAVIGAKNEKIGVENLQGSGLIAGETARAYAEVPTYCYVTGRSVGIGAYTARLAHRIVQHKQSHLILTGYEALNTLLGKKVYTSNNQLGGPEVMFRNGVTHAVVDNDLEGIAKVIRWMSFLPTPTEEFPFFSKHGDDCSARDVVIPSDSEQNTYDVRDLIDSKNLSNQTGICDTMSFDEICGDWAKSIVAGRARLCGIPIGVVSSEFRNFSTIVPADPAIDGSQVQNTQRAGQVWYPDSAFKTAEAINDLNKENLPLMIIASLRGFSGGQKDMYDMVLKFGAQIVDALAVYNRPVIVYIPEAGELRGGAWAVLDSKIRPEFIHLVADEKSRGGILEPNAVVGIKFRKPMMMEMMKRSDPTYSKLSSSTEPEAREQLEERYEELSKTYRNASVEFADAHDRWQRMKSVGVVEHVTSLTNSRRLFSELLRNEL
MGSDKIHHHHHHLNTRDFEYFLALTQTRNFSQTAEQFAVSQPTITTAIKRLEDSFQAQLIIRDRRHHDIGVTSAGKQLAAHAQVILQQLTLAQQEIAWDQTNKIRFGLPPIIGNYFFPKIAPQLIAAGLMPQLQTVEAGSAALLNQIKQGDLDFALLGASGPLQEPDLTISQIGTAPFVIITSESDPLAQKDKVRFAELAMQKFVTLSEAFVHTRAFTWFQQQSAFIPNVVYQTGDVQLLKQMVVQNVGIGFLTNLAINPDDHLAAVKLTDPKQPVFTISIVRRKDRVLTPAMQHFNQILAAN
MGSDKIHHHHHHLQFAVLSSGSAGNCSLLMTDQHKILMDAGLSGKKTKELLAKVGVAIEDLDMVFLSHDHGDHSGGMGVLMRRYPQLNAFSNTVTWKYLEETGKIGCLPKDQINVIEPGQTKCYGDLEVTAFATSHDAAQPQYYVFSSGGKRLACLTDTGYVSEEVEYEIQDADAYLLEFNYDDLMLRSGPYPWSLQQRVRSDHGHLSNEQAAETLARVISSKTKHVFMAHRSQQNNLNYLARDVAEEVLAARDADVASDLELHDTEPMTPSSLINL
MGSDKIHHHHHHLRNSIDLTKKIKEKAFEEGFDAVGIAKVPGSSRIKLRTASLERWLQAGHQATMEWMKSPRRKDIENMLQGVKSILAVGLNYYVDTERESKDISIARYGWGKDYHKIIEEKLKKVAKFLETERPNAKWKICVDTSAFLDKAWAEEAGIGWIGKHSNVINSEIGSWMFLGHLLSTEVLEADKPSKPICGECEKCIEACPTKAIEEPFIVNSYKCLAYHTLENRDQELPENIINKMGNWIAGCDICQDVCPWNQKHIPSTTEPDLQPSEWILHTTKQDLLSWDDAKWKESLKNSALKRIKPWMWRRNIDSISKKT
MGSDKIHHHHHHMAAPIIHGGGITEAAARFGGTPEDWLDLSTGINPCPAALPEIDARVWHRLPDRHVEEAARAAASRYYRTGELMPLPVPGTQAAIQLLPRIAGQRKRVAIFAPTYGEYARVLKAAGLVVDSVTCAGDLQAAHGLAVVVNPNNPTGRRFPPEEILAMAEAMRAHGGLLVVDEAFGDLEPDASVAGHVAANDNLVVFRSFGKYFGLAGLRLGFVVASRTVEDSFRDWLGPWSVSGPALAISAKLMEGDTLGIKVGIAERKAALDAVLFGAGLDVVGGTGLFTLVEHERAYDLHAALCEAHILTRKFDYDPRWLRIGLSPNAQGDRRLAEALNRMGV
MGSDKIHHHHHHMADNTPKFSQGSTSDTVGYEDFLVDLKTRISNAQLRAVVAVNKELVLLYWQIGRDILHRQQQQGWGAKVIDRLASDLRKAFPDIKGFSSRNLKYMRAFAEAYNDEEFVQQAVAQIPWGHNVRLLDAVKDPAERLWYAQQTIQNGWSRNVLVHQIESKLYQRQGKATTNFNNTLPQPQSELAQQLLKDPYTFDFLNLGEDFLERDLERALIKHIRDFLLELGVGFAFVGSQYHLEVGGEDFYIDLLFYHLRLRCFVVIDLKIEDFKPEFSGKMNFYVSAVDDLLRHPNDQSTIGIILCRSKNKVIAEYSLRDMYKPIGVSTYQLKDNLPEFVQDNLPTIEQLESELETVVLKLEKLDDL
MGSDKIHHHHHHMAEITSISQFLSTAKTQFQVYDLGRRVQHIDAMAFAQIEALQAPYPYPIQGHAKMALVFWDASEQHFVWFISLPLDERGLLSPAPRSHFIQMILEALGQDLTRTLSEDEQQKMANHPFSFKPTQEKLAVFNALVRRHLGRSASSQYEFAAQYLSGQLPAESWPNVGFQGLADICVRLGELDHAAMVARALKNAPMEVQIALCQCLEHVLVSDEVKDALLAGLEEHRDARLIYFLRALGSQSDASVRAIASLAEKRLLTEEVLICIAGRNWLALRDDVCRKNFLEALALMPQDFFNQVFADIVAIPALRTSMLMAIRDPNRSDALSLAIGGLFKATKS
MGSDKIHHHHHHMAEKTIVEKLQLTKYKEAVILNQPNGADYFQNLANYEEKLADKQYDLIFDFVETLEELITFVQKVIAENKLAANGYLFFAYPKKGNKKFATYVHRDELMPALKTDEEGYVDGSTLKFTRMVALDETYTVVGLKEAAKLKAKGVKKNNPSADEYADHVPLVAEFLADKGDLQAFYNNLATGYQRVWARYIYSAKQPATQEKRRLEMVDILSQGYKTKDLYRQGKK
MGSDKIHHHHHHMAEKVDYAALKKGGFMRQKQKGCFSLRIAVVGGNLTAENIKTVAEVAEKYGHGYVHMTSRQGIEIPFIKVEDINVVKEELAKGGVGTGVCGPRVRTVTACQGSEICPSGCIDTYTLAKELDERYFGRELPHKFKFGVTGCQNNCLKAEENDVGIKGGMTVECSHDDCIQCGVCVKACREGALSMEDGRIVIDRDKCNNCARCVKSCPTDAWKGTPGYIVSFGGLFGNHIYKGEQLVPIIRDKETLFRVTDAAISFFEKHANGGERFRLTLQRVGEEEFKKEIQAAYEGK
MGSDKIHHHHHHMAELSTRYNPAEIETKWYRYWEEKGYFTPKGVGEKFSIVIPPPNITGRIHMGHALNITLQDIVVRYKRMKGYDVLWVPGEDHAGIATQNAVEKFLLQTQGKTREEIGREKFLEITWEWANKYRREIREQIKALGASVDWTRERFTLDEGLSRAVRKVFVELYRKGLIYRGKYIVNWCPRCKTVLSDEEVEHKEHKSKLYYVKYPVKDSDEYIVVATTRPETMLGDTAVAVHPEDERYKNFVGKTLILPLVGREIPVVADKYVDPKFGTGAVKVTPAHDPNDYLIAQRHNLPMIEIFDDNARINENGGKYKGLDRYEAREKIVKDLEEQGFLVKIEDYTHSVGHCYRCDTVIEPKLSDQWFVSTKPLAKRAIEAVENGEIRFFPERWTKVYLNWMYEIRDWCISRQLWWGHRIPVWYCQDCGHLNVSEEDVEKCEKCGSTNLKQDEDVLDTWFSSALWPFSTLGWPEETEDLKRYYPTDLLVTGFDIIFFWVARMIMMGYEFMNDKPFSHVYIHQLVRDKYGRKMSKSLGNGIDPLEVIDEYGADPMRFTLAILAAQGRDIKLDPRYFDAYKKFANKIWNATRFVLMNLEDYKEVPLENLKTVDKWILTRLNKTVEEVTNALENYDFNIAARTIYNFFWDDFCDWYIEASKPRLKTEERNLVQTVLVKVLDASLRLLHPFMPFLTEELWQKLPVAGESITIAKWPEIERELIDETAEKEFTRLMNMVRGVRNVRAEMNLPQSQRVKVYIKGYEVTEEEELLLKTLGNIEEVSFVNEKPPKTATAYVEEEIEAYVDLGGLIDFEKEKERLKQIMEKIQKEIDRLEKKLANKDFVEKAPEEVVEETKEKLNTNRERLARLESILRDLE
MGSDKIHHHHHHMAEYFQDDLGFRPFNAQVNHCTRDLGFRLYEPSDVLFASFSDESGMRTYVRTLSFILSKAVADILPGSKLFIEHSLSNGYYCQIKNAHMITPGEIVRIKERMESLIVADIPFRAHCERTEEVAAMFRSMGYEDKADLLETKGMPYSRYYDLDGYPDYYYGSLAPSTGYIGLFGLEPYLDGVLLRIPRRDKPEELAPFVPQPMMRQVFADHDRLLDILQVTHVGSLNKAVDRNDISTMVQVSEAMQEKQIAAIADDIAHKYKEGVRVVLISGPSSSGKTTFCKRLQTQLLTNYIRPYGLSLDDYFINREDSPRDESGDYDFESLYALDLPLFNKDLKQMIAGEEVSLPTYDFATGMRVYKGNTIQLKDGDILILEGIHALNPELIPGVPESSTYKIYVSALTAIGLDAHNRIPSTDNRLIRRLVRDYRYRNYSGLGTLRRWQSVRRGEEKWVFPFQENAHVMFNSAMLYELAVLRAYAEPILQAIPRNEPEYAEARRLLRFLSSFRMIPARLLPNNSLMREFLGGSTFHY
MGSDKIHHHHHHMAFAMKVISQVEAQRKILEEAVSTALELASGKSDGAEVAVSKTTGISVSTRYGEVENVEFNSDGALGITVYHQNRKGSASSTDLSPQAIARTVQAALDIARYTSPDPCAGVADKELLAFDAPDLDLFHPAEVTPDEAIELAARAEQASLKADKRITNTEGGSFNSHYGIKVFGNSHGMLQGYCSTRHSLSSCVIAEENGDMERDYAYTIGRAMADLQAPEWVGAECARRTLSRLSPRKLSTMKAPVIFANEVATGLFGHLVGAIAGGAVYRKSTFLLDSLGKQILPEWLTIEEHPHLLKGLASSPFDSEGVRTERRDIVKDGVLTQWLLTNYSARKLGLKSTGHAGGIHNWRIAGQGLNFEQLLKEMGTGLVVTELMGQGVSGITGDYSRGAAGFWVENGEIQYPVSEITIAGNLKEMWRNIVTVGDDIETRSNIQCGSVLLPEMKIAGQ
